The series deals with the molecule itself. Nature of the series: crystal structure; micro-electron diffraction (micro-ED) of M9I microcrystals grown in batch: 6 mg/ml peptide in 1% DMSO mixed 1:1 with 0.1 M sodium phosphate pH 4.6, 1.5 M NaCl, room temperature; 1.05 Å, direct methods.

B1: M9I, the first 9 N-terminal residues of Drosophila Orb2A (peptide)
peptide: MYNKFVNFI
notes: Dissolved in 100% DMSO, then diluted in water or buffer; Terminal protecting groups are not mentioned; also called M9I-WT; wildtype M9I; source: synthetic peptide, bought: Genscript (>98% purity)
Turning to B1, the binding result was “binds”.

Values taken from paper PMC9556795, “Micro-electron diffraction structure of the aggregation-driving N terminus of Drosophila neuronal protein Orb2A reveals amyloid-like β-sheets” (The Journal of Biological Chemistry, 2022).
